Data reported in publication PMC6885551.

Biological target: Salmonella FraB deglycase, wild type (Salmonella enterica)
Assay: native MS

Kd: 0.031 to 0.063 µM
Substance: Salmonella FraB deglycase, wild type (enzyme)
